From patent publication US20040029178A1, “Novel g protein-coupled receptor proteins and dnas thereof” (priority 2000, published 2004)
Peptide text beside a SMILES is read from it.

Assays:
[1] = biological target: T1, TGR26 (Rattus norvegicus, UniProt Q56UD9); assay: Inhibition of intracellular cAMP production using TGR26 expressing CHO cells; format: cell-based; settings: 2 μM forskolin, various concentrations
T1 construct: expressed in transfected cells; whole cells in A1, membrane fraction in A2 and A3
T1 sequence (Q56UD9 1-329): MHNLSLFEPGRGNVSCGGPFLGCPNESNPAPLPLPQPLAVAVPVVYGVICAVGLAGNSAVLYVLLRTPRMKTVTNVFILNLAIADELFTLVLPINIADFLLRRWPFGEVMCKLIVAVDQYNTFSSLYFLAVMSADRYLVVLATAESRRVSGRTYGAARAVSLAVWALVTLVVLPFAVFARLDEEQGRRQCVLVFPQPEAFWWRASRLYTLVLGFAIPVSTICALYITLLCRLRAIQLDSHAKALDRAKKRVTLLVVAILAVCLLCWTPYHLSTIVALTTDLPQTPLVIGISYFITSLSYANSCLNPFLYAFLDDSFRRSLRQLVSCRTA
Method: TGR26 expressing CHO cells prepared in Example 3 were seeded on 24-well plate at 5×10^4 cells/well and cultivated for 48 hours. The cells were washed with MEMα buffer (pH 7.4) containing 0.2 mM 3-isobutyl-methylxanthine, 0.05% BSA (bovine serum albumine) and 20 mM HEPES [hereafter, MEMα buffer (pH 7.4) containing 0.2 mM 3-isobutyl-methylxanthine, 0.05% BSA (bovine serum albumine) and 20 mM HEPES may be referred to as reaction buffer]. Then, 0.5 ml of the reaction buffer was added to the cells and the suspension was incubated for 30 minutes in the incubator. After removal of the reaction buffer and newly adding 0.25 ml of the reaction buffer to the cells, an appropriate concentration of sample in DMSO solution and 0.25 ml of the reaction buffer containing 2 μM forskolin were added to the cells and the mixture was reacted at 37° C. for 30 minutes. For termination of the reaction, 100 μl of 20% perchloric acid was added. Subsequently, the mixture was stood on ice for an hour to extract intracellular cAMP. The cAMP level in the extract was measured using the cAMP EIA Kit (Amersham Pharmacia Biotech).
The human homologue of GPR8 ligand peptide consisting of 23 residues represented by […], which was obtained in Reference Example 12 (hereafter, sometimes referred to as hGPR8L (1-23)), or the human homologue of GPR8 ligand peptide consisting of 30 residues represented by […], which was obtained in Reference Example 13 (hereafter, sometimes referred to as hGPR8L (1-30)) was administered at various concentrations to […] TGR26 expressing CHO cells by the method described in Example 4, and an inhibiting activity of intracellular cAMP production was measured.
In the figure, when an amount subtracted intracellular cAMP level with the reaction buffer from intracellular cAMP level with the reaction buffer containing forskolin is indicated as 100%, the inhibiting activity of cAMP synthesis is indicated as an amount subtracted intracellular cAMP level with hGPR8L (1-23) or hGPR8L (1-30) from intracellular cAMP level with the reaction buffer by representation of percentage (%).

[2] = biological target: T1, TGR26; assay: GTPγS binding activity using a membrane fraction of TGR26 expressing CHO cells; format: biochemical; settings: various concentrations
Method: Promoting activity for [^35S]-guanosine 5′-(γ-thio) triphosphate (GTPγS) binding to a membrane fraction of TGR26 expressing cells was assayed in accordance with the following method.
To 1×10^8 of TGR26 expressing CHO cells, 10 ml of homogenating buffer (10 mM NaHCO3, 5 mM EDTA, 0.5 mM PMSF (phenylmethylsulfonyl fluoride), 1 μg/ml Pepstatin, 4 μg/ml E-64, 20 μg/ml Leupeptin) was added, and the cells were disrupted using Polytron (12,000 rpm, 1 minute). Supernatant was obtained from the disrupted cell suspension by centrifugation (1,000 g, 15 minutes). In addition, the supernatant was ultracentrifuged (Beckman Type 30 rotor, 30,000 rpm, 1 hour), and precipitate obtained was kept as a membrane fraction of TGR26 expressing CHO cells.
The membrane fraction of TGR26 expressing CHO cells was diluted with membrane dilution buffer (50 mM Tris HCl buffer (pH 7.4), 5 mM MgCl2, 150 mM NaCl, 1 μM GDP, 0.1% BSA) to prepare a cell membrane fraction solution for assay at 30 μg/ml of protein concentration. To 200 μl of membrane fraction solution for assay, 2 μl of 50 nM [^35S]-guanosine 5′-(γ-thio) triphosphate (NEN) and 2 μl of sample/DMSO solution having an appropriate concentration were added. Then the mixture was incubated at 25° C. for one hour. The mixture was filtrated, and further the filter was washed twice with 1.5 ml of washing buffer (50 mM Tris HCl buffer (pH 7.4), 5 mM MgCl2, 1 mM EDTA, 0.1% BSA). Finally, a radioactivity on the filter was determined by liquid scintillation counter.
Various concentration of hGPR8L (1-23) or hGPR8L (1-30) was mixed with a membrane fraction of the TGR26 expressing cell in accordance with the method described in Example 6, and a promoting activity of GTPγS binding was assayed.

[3] = biological target: T1, TGR26; assay: Receptor binding using [125I-Tyr10]-hGPR8L (1-23) and membrane fraction of TGR26 expressing CHO cells; settings: for inhibition for the specific binding of [125I-Tyr10]-hGPR8L (1-23): membrane fraction of TGR26 expressing cells, in words
Method: Using [^125I-Tyr^10]-hGPR8L (1-23) prepared by the method described in Reference Example 15 and a cell membrane fraction prepared from TGR26 expressing cells as described in Example 6, a receptor binding assay was carried out as follows.
Cell membrane fraction prepared from TGR26 expressing cells was diluted to various concentration with assay buffer (25 mM Tris-HCl, 5 mM EDTA, 0.05% CHAPS (3-[(3-Cholamidopropyl) Dimethyl-Ammonio]-1-Propanesulfonate), 0.1% BSA, 0.5 mM PMSF, 1 μg/ml Pepstatin, 20 μg/ml Leupeptin, 4 μg/ml E-64, pH 7.4), and 200 μl each of the diluent was dispensed into polypropilene test tube (Falcon 2053). In order to determine an amount of maximum binding, 2 μl of DMSO and 2 μl of 7 nM [^125I-Tyr^10]-hGPR8L (1-23) were added to the membrane fraction solution. Further, in order to determine a non-specific binding, 2 μl of 100 μM hGPR8L (1-23)/DMSO solution and 2 μl of 7 nM [^125I-Tyr^10]-hGPR8L (1-23) were added to the membrane fraction solution. The reaction was done at 25° C. for 75 minutes, and the reaction mixture was filtered by suction filtration using Whatman glassfilter (GF-F) treated with polyethyleneimine. In addition, the filter was washed twice with 1.5 ml of washing buffer (25 mM Tris-HCl, 5 mM EDTA, 0.05% CHAPS, 0.1% BSA, pH 7.4). After filtration, a radioactivity remaining on the filter was counted using γ-counter, and an amount of specific binding was estimated by subtracting an amount of non-specific binding from an amount of maximum binding.
Where the concentration of membrane fraction was set to 3 μg/ml, an inhibition for the specific binding of [125I-Tyr^10]-hGPR8L (1-23) to the membrane fraction of TGR26 expressing cells by hGPR8L (1-23) and hGPR8L (1-30) was investigated.
A receptor binding activity of human- and porcine-homologue derivatives of GPR8 ligand peptide obtained in the reference examples was measured using a membrane fraction of TGR26 expressing CHO cells and [^125I-Tyr^10]-hGPR8L (1-23) by the method described in Example 8. The receptor binding activity is represented by concentration of 50% inhibition for binding (IC50 value).

Row | Compound | inhibition for the specific binding of [125I-Tyr10]-hGPR8L (1-23) [3] | IC50 ([3]; membrane fraction of TGR26 expressing CHO cells, [125I-Tyr10]-hGPR8L (1-23), method of Example 8) [nM] | inhibiting activity of intracellular cAMP production [1] | promoting activity of GTPγS binding [2]
1 | CSCC[C@H](NC(=O)[C@H](CC(C)C)NC(=O)[C@H](CC(C)C)NC(=O)CNC(=O)[C@H](C)NC(=O)[C@H](C)NC(=O)[C@H](CCCNC(=N)N)NC(=O)CNC(=O)[C@@H](NC(=O)[C@@H](NC(=O)[C@H](Cc1c[nH]cn1)NC(=O)[C@H](Cc1ccc(O)cc1)NC(=O)[C@H](CCCNC(=N)N)NC(=O)[C@@H]1CCCN1C(=O)[C@H](CO)NC(=O)[C@H](C)NC(=O)[C@@H](NC(=O)[C@H](Cc1c[nH]cn1)NC(=O)[C@H](CCCCN)NC(=O)[C@H](Cc1ccc(O)cc1)NC(=O)[C@@H](N)Cc1c[nH]c2ccccc12)[C@@H](C)O)[C@@H](C)O)C(C)C)C(=O)NCC(=O)N[C@@H](CC(C)C)C(=O)O [pGPR8L (1-23), Trp-Tyr-Lys-His-Val-Ala-Ser -Pro-Arg-Tyr-His-Thr-Val-Gly-Arg-Ala-Ala-Gly-Leu-Leu-Met-Gly-Leu] | – | – | intracellular cAMP production of the TGR26 expressing CHO cells was inhibited depending on the concentration | GTPγS binding of the TGR26 expressing CHO cells was promoted depending on the concentration
2 | Trp-Tyr-Lys-His-Val-Ala-Ser -Pro-Arg-Tyr-His-Thr-Val-Gly-Arg-Ala-Ala-Gly-Leu-Leu-Met-Gly-Leu [SEQ ID NO: 73] | can also be confirmed | – | intracellular cAMP production of the TGR26 expressing CHO cells was inhibited depending on the concentration | GTPγS binding of the TGR26 expressing CHO cells was promoted depending on the concentration
3 | SEQ ID NO: 57: porcine homologue of hGPR8L (1-30), ligand peptide to GPR8 deduced from SEQ ID NO: 55 (WYKHTASPRYHTVGRAAGLLMGLRRSPYMW; Porcine) | can also be confirmed | – | intracellular cAMP production of the TGR26 expressing CHO cells was inhibited depending on the concentration | GTPγS binding of the TGR26 expressing CHO cells was promoted depending on the concentration
4 | CSCC[C@H](NC(=O)[C@H](CC(C)C)NC(=O)[C@H](CC(C)C)NC(=O)CNC(=O)[C@H](C)NC(=O)[C@H](C)NC(=O)[C@H](CCCNC(=N)N)NC(=O)CNC(=O)[C@@H](NC(=O)[C@@H](NC(=O)[C@H](Cc1c[nH]cn1)NC(=O)[C@H](Cc1ccc(O)cc1)NC(=O)[C@H](CCCNC(=N)N)NC(=O)[C@@H]1CCCN1C(=O)[C@H](CO)NC(=O)[C@H](C)NC(=O)[C@@H](NC(=O)[C@H](Cc1c[nH]cn1)NC(=O)[C@H](CCCCN)NC(=O)[C@@H](N)Cc1ccc(O)cc1)C(C)C)[C@@H](C)O)C(C)C)C(=O)NCC(=O)N[C@@H](CC(C)C)C(=O)O [hGPR8L (2-23), Tyr-Lys-His-Val-Ala-Ser-Pro -Arg-Tyr-His-Thr-Val-Gly-Arg-Ala-Ala-Gly-Leu-Leu-Met-Gly-Leu] (H-YKHVASPRYHTVGRAAGLLMGL-OH; C-terminus assumed) | – | 240 | – | –

Continued, in another order:

Row | inhibition for the specific binding of [125I-Tyr10]-hGPR8L (1-23) [3] | IC50 ([3]; membrane fraction of TGR26 expressing CHO cells, [125I-Tyr10]-hGPR8L (1-23), method of Example 8) [nM] | Compound | inhibiting activity of intracellular cAMP production [1] | promoting activity of GTPγS binding [2]
5 | can also be confirmed | – | SEQ ID NO: 74: rat homologue of hGPR8L (1-30), ligand peptide to GPR8 deduced from SEQ ID NO: 72 (WYKHVASPRYHTVGRASGLLMGLRRSPYLW; Rat) | intracellular cAMP production of the TGR26 expressing CHO cells was inhibited depending on the concentration | GTPγS binding of the TGR26 expressing CHO cells was promoted depending on the concentration
6 | can also be confirmed | – | SEQ ID NO: 92: mouse homologue of hGPR8L (1-30), ligand peptide to GPR8 deduced from SEQ ID NO: 90 (WYKHVASPRYHTVGRASGLLMGLRRSPYQW; Mouse) | intracellular cAMP production of the TGR26 expressing CHO cells was inhibited depending on the concentration | GTPγS binding of the TGR26 expressing CHO cells was promoted depending on the concentration
